The results in this text go back to article PMC2602789.

The target of this experiment is wild-type Tn3 resolvase (bacterial transposon Tn3) (UniProt P0ADI2). Nature of the experiment: SEC. On the technique in general: SEC sorts molecules by how far they enter the pores of the column.

Regarding “wild-type Tn3 resolvase (from UniProt P0ADI2 1-185) (enzyme)”, the stoichiometry N is 2.

The term stoichiometry N denotes the number of molecules, sites or subunits per partner or assembly.
